The data set concerns the molecule itself. The data set can be described thus: non-reducing SDS-PAGE of immunoprecipitates.

B1: Rat p75 neurotrophin receptor (p75^NTR), wild type, N-terminal HA tag (receptor, UniProt P07174 30-425, looked up)
chain: KETCSTGLYTHSGECCKACNLGEGVAQPCGANQTVCEPCLDNVTFSDVVSATEPCKPCTECLGLQSMSAPCVEADDAVCRCAYGYYQDEETGHCEACSVCEVGSGLVFSCQDKQNTVCEECPEGTYSDEANHVDPCLPCTVCEDTERQLRECTPWADAECEEIPGRWIPRSTPPEGSDSTAPSTQEPEVPPEQDLVPSTVADMVTTVMGSSQPVVTRGTTDNLIPVYCSILAAVVVGLVAYIAFKRWNSCKQNKQGANSRPVNQTPPPEGEKLHSDSGISVDSQSLHDQQTHTQTASGQALKGDGNLYSSLPLTKREEVEKLLNGDTWRHLAGELGYQPEHIDSFTHEACPVRALLASWGAQDSATLDALLAALRRIQRADIVESLCSESTATSPV
Take B1: the “stoichiometry N” value was 2.

B2: Endogenous rat p75^NTR (receptor, UniProt P07174 30-425, looked up)
chain: KETCSTGLYTHSGECCKACNLGEGVAQPCGANQTVCEPCLDNVTFSDVVSATEPCKPCTECLGLQSMSAPCVEADDAVCRCAYGYYQDEETGHCEACSVCEVGSGLVFSCQDKQNTVCEECPEGTYSDEANHVDPCLPCTVCEDTERQLRECTPWADAECEEIPGRWIPRSTPPEGSDSTAPSTQEPEVPPEQDLVPSTVADMVTTVMGSSQPVVTRGTTDNLIPVYCSILAAVVVGLVAYIAFKRWNSCKQNKQGANSRPVNQTPPPEGEKLHSDSGISVDSQSLHDQQTHTQTASGQALKGDGNLYSSLPLTKREEVEKLLNGDTWRHLAGELGYQPEHIDSFTHEACPVRALLASWGAQDSATLDALLAALRRIQRADIVESLCSESTATSPV
Regarding B2, the “stoichiometry N” value stood at 2.

For the origin of these results see paper PMC2810632 (Neuron, 2009).
